Data taken from PMC2481302.

Target: human purified platelet factor 4/CXCL4 (human)
Test: cell attachment assay; αvβ3-CHO and mock-transfected CHO cells plated on microtiter wells coated with CXCL4 or CXCL4/CTF at the indicated concentrations; 60 min at 37°C in serum-free medium with 0.5% BSA; attached cells stained with Coomassie blue, absorbance at 620 nm; also with 0.25 mM Mn2+ or 2 mM Mg2+

Q: With “human αvβ3 integrin on CHO cells (αvβ3-CHO, clone A06) (from UniProt P06756 31-1048; P05106 27-788) (receptor)” as the substance, how does the increase of cell attachment with Mn2+ or Mg2+ against no added cation read?
A: 25%
